Legend:
[1] = biological target: rat CD163 on cells (rat) (UniProt D3Z9U2); test: flow cytometry, rat peritoneal macrophages, ED2-FITC
[2] = biological target: rat CD163 on cells (rat) (UniProt D3Z9U2); test: flow cytometry, rat peritoneal macrophages stained with anti-rat CD172a-PE (ED9) and anti-rat CD163-FITC (ED2)
[3] = biological target: human CD163 on cells (human) (UniProt Q86VB7); test: flow cytometry, CD163high subset of peripheral blood dendritic cells; clone GHI/61 by paragraph 356
[4] = biological target: human CD163 on cells (human) (UniProt Q86VB7); test: flow cytometry, CD14+ILT3+HLA-DR+ monocytes; clone GHI/61 by paragraph 356
[5] = biological target: human CD163 on cells (human) (UniProt Q86VB7); test: flow cytometry, fresh whole blood, citrate as anticoagulant
[6] = biological target: human CD163 on cells (human) (UniProt Q86VB7); test: quantitative flow cytometry (Quantibrite PE beads), fresh EDTA whole blood
[7] = biological target: human CD163 on cells (human) (UniProt Q86VB7); test: quantitative flow cytometry, fresh whole blood, heparin as anticoagulant
[8] = biological target: human CD163 on cells (human) (UniProt Q86VB7); test: 125I-labelled mAb on stable CD163 transfected Flp-In CHO cells (non-transfected cells: 1.23%)
[9] = biological target: human CD163 on cells (human) (UniProt Q86VB7); test: flow cytometry, PE mAb, CD163+ peripheral blood dendritic cells
[10] = biological target: purified recombinant CD163 immobilized on a Biacore chip (human) (UniProt Q86VB7); test: SPR, immobilized recombinant CD163, 10 mM EDTA buffer
[11] = biological target: human CD163 on cells (human) (UniProt Q86VB7); test: flow cytometry, CD163low subset of peripheral blood dendritic cells; clone GHI/61 by paragraph 356
[12] = biological target: human CD163 on cells (human) (UniProt Q86VB7); test: flow cytometry, fresh whole blood, heparin as anticoagulant
[13] = biological target: human CD163 on cells (human) (UniProt Q86VB7); test: quantitative flow cytometry, fresh whole blood, citrate as anticoagulant
[14] = biological target: human CD163 on cells (human) (UniProt Q86VB7); test: flow cytometry, PBMC isolated by density gradient centrifugation
[15] = biological target: human CD163 on cells (human) (UniProt Q86VB7); test: flow cytometry, PE mAb, CD14-ILT3+ dendritic cells in whole blood
[16] = biological target: human CD163 on cells (human) (UniProt Q86VB7); test: quantitative flow cytometry, PBMC isolated by density gradient centrifugation
[17] = biological target: human CD163 on cells (human) (UniProt Q86VB7); test: flow cytometry, R-PE mAb, fresh EDTA whole blood
[18] = biological target: rat CD163 on cells (rat) (UniProt D3Z9U2); test: flow cytometry, rat peritoneal macrophages, negative control staining with IgG-FITC
[19] = biological target: human CD163 on cells (human) (UniProt Q86VB7); test: flow cytometry, mononuclear cells from buffy coat, Mac2-158-FITC with KN2/NRY-Alexa Fluor647
[20] = biological target: human CD163 on cells (human) (UniProt Q86VB7); test: flow cytometry, human mononuclear cells from buffy coats stained with Mac2-158-FITC, anti-CD14-PE and KN2/NRY-Alexa Fluor647
[21] = biological target: human CD163 on cells (human) (UniProt Q86VB7); test: flow cytometry, fresh whole blood, EDTA as anticoagulant
[22] = biological target: human CD163 on cells (human) (UniProt Q86VB7); test: 125I-labelled mAb on stable CD163 transfected Flp-In CHO cells (non-transfected cells: 1.37%)
[23] = biological target: human CD163 on cells (human) (UniProt Q86VB7); test: flow cytometry, peripheral blood dendritic cells, negative staining control
[24] = biological target: human CD163 on cells (human) (UniProt Q86VB7); test: quantitative flow cytometry (Quantibrite PE beads), fresh EDTA whole blood, isotype control
[25] = biological target: human CD163 on cells (human) (UniProt Q86VB7); test: quantitative flow cytometry, fresh whole blood, EDTA as anticoagulant
[26] = biological target: purified recombinant CD163 immobilized on a Biacore chip (human) (UniProt Q86VB7); test: SPR, immobilized recombinant CD163, 2 mM free Ca2+
[27] = biological target: human CD163 on cells (human) (UniProt Q86VB7); test: 125I-labelled mAb on stable CD163 transfected Flp-In CHO cells (non-transfected cells: 1.47%)
[28] = biological target: T1, murine CD163 in solubilized murine spleen (mouse, UniProt Q2VLH6 39-1121, limits assumed); test: western blot of solubilized murine spleen with hybridoma supernatants
T1 construct: also called non-reduced CD163
Excerpt: The clones were screened by testing binding of supernatants to murine CD163 in solubilized murine spleen loaded on a SDS-PAGE and western blotted, using standard techniques.

purified recombinant CD163 immobilized on a Biacore chip (human), sequence (Q86VB7 42-1050 limits assumed): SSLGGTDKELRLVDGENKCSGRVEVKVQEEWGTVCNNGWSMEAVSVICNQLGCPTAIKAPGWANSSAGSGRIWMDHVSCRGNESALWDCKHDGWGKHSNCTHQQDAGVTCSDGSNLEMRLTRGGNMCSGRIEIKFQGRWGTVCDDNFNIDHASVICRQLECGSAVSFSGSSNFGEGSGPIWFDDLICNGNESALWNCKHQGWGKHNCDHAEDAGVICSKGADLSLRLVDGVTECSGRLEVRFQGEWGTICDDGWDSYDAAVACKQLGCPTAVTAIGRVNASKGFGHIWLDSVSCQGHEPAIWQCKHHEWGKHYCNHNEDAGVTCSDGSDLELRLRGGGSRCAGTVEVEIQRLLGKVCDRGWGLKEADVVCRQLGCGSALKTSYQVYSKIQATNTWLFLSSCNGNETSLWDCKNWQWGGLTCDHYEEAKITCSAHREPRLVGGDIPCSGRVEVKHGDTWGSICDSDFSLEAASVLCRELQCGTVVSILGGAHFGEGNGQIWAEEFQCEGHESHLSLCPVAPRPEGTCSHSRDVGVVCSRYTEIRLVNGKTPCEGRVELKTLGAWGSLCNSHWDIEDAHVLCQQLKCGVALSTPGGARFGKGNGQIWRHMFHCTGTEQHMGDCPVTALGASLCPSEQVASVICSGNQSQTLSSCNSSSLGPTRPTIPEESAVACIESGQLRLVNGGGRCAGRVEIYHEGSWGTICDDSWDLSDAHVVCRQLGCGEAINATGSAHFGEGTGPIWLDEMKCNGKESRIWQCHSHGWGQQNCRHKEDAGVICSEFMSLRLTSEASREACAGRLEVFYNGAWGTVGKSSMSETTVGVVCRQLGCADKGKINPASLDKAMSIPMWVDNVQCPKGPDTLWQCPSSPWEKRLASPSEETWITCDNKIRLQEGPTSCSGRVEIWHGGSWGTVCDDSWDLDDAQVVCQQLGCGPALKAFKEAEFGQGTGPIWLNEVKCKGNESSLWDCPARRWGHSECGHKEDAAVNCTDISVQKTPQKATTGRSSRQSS
T1 sequence (Q2VLH6 39-1121 limits assumed): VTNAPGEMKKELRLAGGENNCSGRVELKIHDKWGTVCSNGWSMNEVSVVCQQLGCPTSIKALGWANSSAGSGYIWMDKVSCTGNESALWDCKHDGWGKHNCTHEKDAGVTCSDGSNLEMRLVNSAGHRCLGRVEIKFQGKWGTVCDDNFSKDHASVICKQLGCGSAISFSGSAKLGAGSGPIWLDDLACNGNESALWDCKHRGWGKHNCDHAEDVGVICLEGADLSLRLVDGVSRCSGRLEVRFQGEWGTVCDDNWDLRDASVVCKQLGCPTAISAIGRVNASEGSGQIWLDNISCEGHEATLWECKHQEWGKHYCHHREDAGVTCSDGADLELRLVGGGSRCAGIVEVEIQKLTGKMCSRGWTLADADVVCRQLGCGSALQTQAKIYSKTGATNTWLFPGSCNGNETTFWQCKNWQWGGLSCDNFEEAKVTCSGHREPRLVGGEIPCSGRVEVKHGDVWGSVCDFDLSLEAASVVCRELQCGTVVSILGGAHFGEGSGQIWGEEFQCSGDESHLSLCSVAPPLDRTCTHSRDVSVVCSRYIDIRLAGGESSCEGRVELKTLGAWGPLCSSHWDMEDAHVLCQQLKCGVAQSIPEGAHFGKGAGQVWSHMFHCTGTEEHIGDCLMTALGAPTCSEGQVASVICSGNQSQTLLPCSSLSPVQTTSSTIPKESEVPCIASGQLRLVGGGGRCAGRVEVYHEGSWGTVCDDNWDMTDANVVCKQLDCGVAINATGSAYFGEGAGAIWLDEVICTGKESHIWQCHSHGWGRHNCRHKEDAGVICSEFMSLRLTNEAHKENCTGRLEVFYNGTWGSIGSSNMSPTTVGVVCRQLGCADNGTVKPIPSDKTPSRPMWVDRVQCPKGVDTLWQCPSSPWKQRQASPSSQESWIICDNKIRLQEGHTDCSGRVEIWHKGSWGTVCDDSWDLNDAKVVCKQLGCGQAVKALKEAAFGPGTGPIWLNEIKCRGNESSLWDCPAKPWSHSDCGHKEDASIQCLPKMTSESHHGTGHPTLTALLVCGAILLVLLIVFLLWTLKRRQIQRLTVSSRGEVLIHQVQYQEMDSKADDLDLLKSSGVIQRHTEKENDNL

**Q.** For ED2 (antibody), which percent of peritoneal macrophages CD163 positive [1] is on record?
**A.** Its percent of peritoneal macrophages CD163 positive is 42%.

**Q.** What about the share of cells in the lower right quadrant (CD163 FITC positive, CD172a PE negative) [2] of the same molecule?
**A.** Its share of cells in the lower right quadrant (CD163 FITC positive, CD172a PE negative) is 0.01%.

**Q.** What about the share of cells in the upper right quadrant (CD163 FITC positive, CD172a PE positive) [2] of the same molecule?
**A.** Its share of cells in the upper right quadrant (CD163 FITC positive, CD172a PE positive) is 42.9%.

**Q.** Which MFI [3] does the source give for GHI/61 (antibody) here?
**A.** Its MFI is 34.6 MFI.

**Q.** What about the percent of cells stained positive [4] of the same molecule?
**A.** The percent of cells stained positive was 88%.

**Q.** What about the fraction of CD14+ monocytes stained positive for CD163 [5] of the same molecule?
**A.** Its fraction of CD14+ monocytes stained positive for CD163 is 64.4%.

**Q.** And the density of CD163 receptors per monocyte (PE antibodies bound per cell) [6]?
**A.** The density of CD163 receptors per monocyte (PE antibodies bound per cell) was 1030 per monocyte.

**Q.** And the density of CD163 receptors per monocyte (PE antibodies bound per cell) [7]?
**A.** The density of CD163 receptors per monocyte (PE antibodies bound per cell) was 58.3 per monocyte.

**Q.** And the percentage of cell-associated radioactivity [8]?
**A.** The percentage of cell-associated radioactivity was 1.23%.

**Q.** And the MFI [9]?
**A.** The MFI was 22.3 MFI.

**Q.** And the Kd [10]?
**A.** Its Kd is 29 nM.

**Q.** And the MFI [11]?
**A.** The MFI was 4.2 MFI.

**Q.** And the fraction of CD14+ monocytes stained positive for CD163 [12]?
**A.** The fraction of CD14+ monocytes stained positive for CD163 was 0.82%.

**Q.** What about the density of CD163 receptors per monocyte (PE antibodies bound per cell) [13] of the same molecule?
**A.** Its density of CD163 receptors per monocyte (PE antibodies bound per cell) is 1150 per monocyte.

**Q.** And the fraction of CD14+ monocytes stained positive for CD163 [14]?
**A.** The fraction of CD14+ monocytes stained positive for CD163 was 1.26%.

**Q.** What about the fraction of peripheral blood dendritic cells recognized [15] of the same molecule?
**A.** The fraction of peripheral blood dendritic cells recognized was 10.5%.

**Q.** And the density of CD163 receptors per monocyte (PE antibodies bound per cell) [16]?
**A.** The density of CD163 receptors per monocyte (PE antibodies bound per cell) was 108 per monocyte.

**Q.** What about the fraction of CD14+ monocytes stained positive for CD163 [17] of the same molecule?
**A.** Its fraction of CD14+ monocytes stained positive for CD163 is 63%.

**Q.** Which share of cells in the lower right quadrant (IgG FITC positive) [18] does the source give for IgG-FITC (antibody) here?
**A.** The share of cells in the lower right quadrant (IgG FITC positive) was 0.41%.

**Q.** What about the share of cells in the upper right quadrant [18] of the same molecule?
**A.** The share of cells in the upper right quadrant was 0.06%.

**Q.** Which fraction of CD14+ monocytes stained positive for CD163 [5] does the source give for Mac2-158 (antibody) here?
**A.** The fraction of CD14+ monocytes stained positive for CD163 was 84%.

**Q.** And the density of CD163 receptors per monocyte (PE antibodies bound per cell) [6]?
**A.** Its density of CD163 receptors per monocyte (PE antibodies bound per cell) is 17700 per monocyte.

**Q.** And the density of CD163 receptors per monocyte (PE antibodies bound per cell) [7]?
**A.** The density of CD163 receptors per monocyte (PE antibodies bound per cell) was 18900 per monocyte.

**Q.** And the percent of peripheral monocytes showing co-binding of KN2/NRY and Mac2-158 [19]?
**A.** The percent of peripheral monocytes showing co-binding of KN2/NRY and Mac2-158 was 70%.

**Q.** And the MFI [9]?
**A.** Its MFI is 108 MFI.

**Q.** And the share of cells in the lower right quadrant (Mac2-158-FITC positive, CD14-PE negative) [20]?
**A.** Its share of cells in the lower right quadrant (Mac2-158-FITC positive, CD14-PE negative) is 1.22%.

**Q.** And the share of cells in the lower right quadrant (Mac2-158-FITC positive, KN2/NRY-Alexa Fluor 647 negative) [20]?
**A.** Its share of cells in the lower right quadrant (Mac2-158-FITC positive, KN2/NRY-Alexa Fluor 647 negative) is 4.45%.

**Q.** What about the share of cells in the upper right quadrant (Mac2-158-FITC positive, CD14-PE positive) [20] of the same molecule?
**A.** Its share of cells in the upper right quadrant (Mac2-158-FITC positive, CD14-PE positive) is 73.9%.

**Q.** And the share of cells in the upper right quadrant (positive for both Mac2-158-FITC and KN2/NRY-Alexa Fluor 647) [20]?
**A.** The share of cells in the upper right quadrant (positive for both Mac2-158-FITC and KN2/NRY-Alexa Fluor 647) was 70.7%.

**Q.** And the fraction of CD14+ monocytes stained positive for CD163 [12]?
**A.** Its fraction of CD14+ monocytes stained positive for CD163 is 84.4%.

**Q.** And the density of CD163 receptors per monocyte (PE antibodies bound per cell) [13]?
**A.** Its density of CD163 receptors per monocyte (PE antibodies bound per cell) is 17700 per monocyte.

**Q.** And the fraction of CD14+ monocytes stained positive for CD163 [21]?
**A.** Its fraction of CD14+ monocytes stained positive for CD163 is 87.2%.

**Q.** And the percentage of cell-associated radioactivity [22]?
**A.** Its percentage of cell-associated radioactivity is 61.3%.

**Q.** And the fraction of CD14+ monocytes stained positive for CD163 [14]?
**A.** The fraction of CD14+ monocytes stained positive for CD163 was 81.1%.

**Q.** And the fraction of peripheral blood dendritic cells recognized [15]?
**A.** The fraction of peripheral blood dendritic cells recognized was 32.3%.

**Q.** What about the density of CD163 receptors per monocyte (PE antibodies bound per cell) [16] of the same molecule?
**A.** Its density of CD163 receptors per monocyte (PE antibodies bound per cell) is 11400 per monocyte.

**Q.** And the fraction of CD14+ monocytes stained positive for CD163 [17]?
**A.** The fraction of CD14+ monocytes stained positive for CD163 was 84.1%.

**Q.** “Mouse IgG, PE, k isotype control, MOPC-21 (antibody)” was tested. Which MFI [23] did it give?
**A.** The MFI was 1.23 MFI.

**Q.** For “R-PE-conjugated Mouse IgG1, k isotype control (MCG1) (antibody)”, which background staining (PE antibodies bound per cell) [24] is on record?
**A.** The background staining (PE antibodies bound per cell) was 94 per monocyte.

**Q.** How did the fraction of CD14+ monocytes stained positive for CD163 [5] turn out when RM3/1 (antibody) was run?
**A.** Its fraction of CD14+ monocytes stained positive for CD163 is 12.5%.

**Q.** What about the density of CD163 receptors per monocyte (PE antibodies bound per cell) [6] of the same molecule?
**A.** The density of CD163 receptors per monocyte (PE antibodies bound per cell) was 101 per monocyte.

**Q.** What about the density of CD163 receptors per monocyte (PE antibodies bound per cell) [7] of the same molecule?
**A.** Its density of CD163 receptors per monocyte (PE antibodies bound per cell) is 210 per monocyte.

**Q.** What about the density of CD163 receptors per monocyte (PE antibodies bound per cell) [25] of the same molecule?
**A.** The density of CD163 receptors per monocyte (PE antibodies bound per cell) was 86 per monocyte.

**Q.** What about the Kd [26] of the same molecule?
**A.** Its Kd is 0.6 nM.

**Q.** And the fraction of CD14+ monocytes stained positive for CD163 [12]?
**A.** The fraction of CD14+ monocytes stained positive for CD163 was 3.33%.

**Q.** What about the density of CD163 receptors per monocyte (PE antibodies bound per cell) [13] of the same molecule?
**A.** The density of CD163 receptors per monocyte (PE antibodies bound per cell) was 207 per monocyte.

**Q.** And the fraction of CD14+ monocytes stained positive for CD163 [14]?
**A.** Its fraction of CD14+ monocytes stained positive for CD163 is 2.5%.

**Q.** And the density of CD163 receptors per monocyte (PE antibodies bound per cell) [16]?
**A.** The density of CD163 receptors per monocyte (PE antibodies bound per cell) was 132 per monocyte.

**Q.** And the fraction of CD14+ monocytes stained positive for CD163 [17]?
**A.** The fraction of CD14+ monocytes stained positive for CD163 was 0.33%.

**Q.** And the percentage of cell-associated radioactivity [27]?
**A.** The percentage of cell-associated radioactivity was 7.77%.

B1: 3E10B10 (antibody, V domains shown)
VH: QVKLQESGGGLVQPKESLKISCAASGFTFSTAAMYWVRQAPGKGLDWVARIRTKPDNYATYYPASVKGRFTISRDDSKGMVYLQMDNLKTEDTAIYYCTAAYYYDGRFDYWGQGVMVTVAS
VL: DIVMTQTPSSQAVSAGERVTMRCKSSQSLLYSENKKNYLAWYQQKPGQSPKLLISWASTRESGVPDRFIGSGSGTDFTLTISSVQAEDLAVYYCDQYYDPPFTFGSGTKLEIK
notes: Rat IgG2a hybridoma antibody raised against mouse CD163 domain 1-3; also called rat anti-mouse E10B10 (IgG2a)
**Q.** Does B1 bind [28]?
**A.** Result: binds

Reference: US20120276193A1 (CYTOGUIDE A S, published 2012)
